B1: recombinant AMY3 (α-amylase3) lacking the chloroplast transit peptide, purified (enzyme, Arabidopsis, UniProt Q94A41 56-887, looked up)
chain: SMNKSPVAIRATSSDTAVVETAQSDDVIFKEIFPVQRIEKAEGKIYVRLKEVKEKNWELSVGCSIPGKWILHWGVSYVGDTGSEWDQPPEDMRPPGSIAIKDYAIETPLKKLSEGDSFFEVAINLNLESSVAALNFVLKDEETGAWYQHKGRDFKVPLVDDVPDNGNLIGAKKGFGALGQLSNIPLKQDKSSAETDSIEERKGLQEFYEEMPISKRVADDNSVSVTARKCPETSKNIVSIETDLPGDVTVHWGVCKNGTKKWEIPSEPYPEETSLFKNKALRTRLQRKDDGNGSFGLFSLDGKLEGLCFVLKLNENTWLNYRGEDFYVPFLTSSSSPVETEAAQVSKPKRKTDKEVSASGFTKEIITEIRNLAIDISSHKNQKTNVKEVQENILQEIEKLAAEAYSIFRSTTPAFSEEGVLEAEADKPDIKISSGTGSGFEILCQGFNWESNKSGRWYLELQEKADELASLGFTVLWLPPPTESVSPEGYMPKDLYNLNSRYGTIDELKDTVKKFHKVGIKVLGDAVLNHRCAHFKNQNGVWNLFGGRLNWDDRAVVADDPHFQGRGNKSSGDNFHAAPNIDHSQDFVRKDIKEWLCWMMEEVGYDGWRLDFVRGFWGGYVKDYMDASKPYFAVGEYWDSLSYTYGEMDYNQDAHRQRIVDWINATSGAAGAFDVTTKGILHTALQKCEYWRLSDPKGKPPGVVGWWPSRAVTFIENHDTGSTQGHWRFPEGKEMQGYAYILTHPGTPAVFFDHIFSDYHSEIAALLSLRNRQKLHCRSEVNIDKSERDVYAAIIDEKVAMKIGPGHYEPPNGSQNWSVAVEGRDYKVWETS

Columns and labels:
[1] = target: recombinant AMY3 (α-amylase3) lacking the chloroplast transit peptide, purified (Arabidopsis) (UniProt Q94A41); assay: SEC-MALS + other: SAXS
cross-linking = target: the molecule itself; assay: cross-linking

Row | Molecule | stoichiometry N (BAM9 per AMY3 (heterodimer)) [1] | stoichiometry N (cross-linking)
1 | recombinant BAM9 (β-amylase9), purified (from UniProt Q8VYW2 1-536) (natural protein) | 1 | 
2 | B1 |  | 2
